The values below come from patent US10907134B2, “Mutated genes for the catalytic protein of oplophorus luciferase and use thereof” (JNC CORPORATION, priority 2013, dated 2021).

Positions count from the first letter of the chain named. Names and notes keep the numbering of the source.

Assay [1] in a line: Substrate specificities of KAZ mutants (ZZ-fused, crude enzyme), bis-CTZ. The assay is classed as biochemical. As to conditions: 1 μg substrate; for Relative Luminescence Activity bis-CTZ Int.: integrated for 60 seconds; for Relative Luminescence Activity bis-CTZ Imax: maximum intensity of luminescence. The procedure:
(§1) The coelenterazine analogues used for substrate specificity studies were synthesized by the methods described in publications. Specifically, bis-coelenterazine was synthesized by the method described in Nakamura et al. (1997) Tetrahedron Lett. 38: 6405-6406; furimazine by the method described in Hall et al. (2012) ACS Chem. Biol. […]; and, 6h-coelenterazine, f-coelenterazine and 6h-f-coelenterazine by the methods described in Inouye et al (2013) Biochem. Biophys. Res. Commun. 437: 23-28.
(§2) DTT was added to the crude enzyme solutions obtained in EXAMPLE 17 at a final concentration of 1 mM and the mixtures were allowed to stand in an ice water for more than 5 hours in the same manner as Example 8. A luminescence reaction was started by the addition of 1 μL each of the crude enzyme solutions to 100 μL of TE containing 1 μg of coelenterazine (manufactured by JNC Corp.) or its analogues. The luminescence activities were determined using a luminometer (manufactured by Atto Inc.: AB2200) for 60 seconds, and the maximum intensity of luminescence (Imax) was shown as relative luminescence activity.

Assay [2] can be described thus: Luminescence activity of ZZ-fused KAZ mutants in crude enzyme solutions. The class given is biochemical. As to conditions: for Relative Luminescence Activity (Imax): ZZ-fused (pCold-ZZ-P-), 1 mM DTT; for Luminescence activity, times higher than that of wild KAZ: coelenterazine (Table 4); for Luminescence activity, fold higher than dnKAZ / Luminescence activity, fold higher than wild KAZ: coelenterazine (Table 9). Summed up: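 E. coli BL21 crude extracts held with 1 mM DTT (final) on ice over 5 hours. Reaction started with 1 μL extract in 100 μL TE containing 1 μg coelenterazine; luminescence read for 60 seconds, maximum intensity (Imax) reported as relative activity.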

The next assay deals with CHO-K1 cells. The assay can be described thus: Luminescence activity of KAZ mutants expressed in animal culture cells without secretional signal peptide sequence. The assay is classed as cell-based, Chinese hamster. As to conditions: for Relative Luminescence Activity (Imax) Cell Extracts / Relative Luminescence Activity (Imax) Culture Medium: Table 12, pcDNA3- vectors without secretion signal; for Relative Luminescence Activity (Imax) Cell Extracts / Relative Luminescence Activity (Imax) Culture Medium / Luminescence activity in the cell extracts, fold higher than wild KAZ: CHO-K1, coelenterazine; for Luminescence activity in the cell extracts, fold higher than wild KAZ: vectors without a secretion signal; for Luminescence activity compared with wild KAZ when coelenterazine was used as a substrate: summary of results. Here is the method:
Chinese hamster ovary cell line CHO-K1 was cultured in Ham's F-12 medium (manufactured by Wako Pure Chemical Industries, Ltd.) supplemented with 10% (v/v) fetal bovine serum (manufactured by Biowest Inc.). The CHO-K1 cells were plated in a 6-well plate in 1×10^5 cells/well/2 mL medium (n=2) and cultured in an incubator at 37° C. in 5% (v/v) CO2. After 24 hours, the purified recombinant plasmid was transfected to CHO-K1 cells using a FuGene HD transfection kit (manufactured by Promega Corp.), which was provided for subsequent experiment. Specifically, 1 μg of the recombinant plasmid pGL4.13 [Luc2/sv40], 0.1 μg of the internal standard vector and 3 μL of FuGene HD were added to 100 μL of the medium, which was allowed to stand at room temperature for 15 minutes. Subsequently, 100 μL of the DNA-FuGene complex was added to the cells in the 6 wells. After incubation for 48 hours, the culture medium was collected. On the other hand, the KAZ mutants expressed in the cells were washed 3 times with 3 mL of 1×PBS, then suspended in 1 mL of 1×PBS and disrupted on ice by ultrasonication, which was used as enzyme solutions of the cell-extracts of KAZ mutants.
A luminescence reaction was started by adding 5 μL of the culture media and cell extracts obtained in EXAMPLE 10 to 100 μL of 30 mM Tris-HCl (pH 7.6)-10 mM EDTA (manufactured by Wako Pure Chemical Industries, Ltd.) containing 0.5 μg of coelenterazine (manufactured by INC Corp.). The luminescence activity was determined using a luminometer (manufactured by Atto Inc.: AB2200) for 60 seconds, and the maximum intensity of luminescence (Imax) was defined as a percentage.
The gene fragments of the KAZ mutants with two amino acid substitutions and three amino acid substitutions and nanoKAZ containing the Kozak sequence were digested with restriction enzymes Asp718 and XbaI, and inserted into the Asp718-XbaI site of pcDNA3 vector (manufactured by Invitrogen Inc.) to construct the vectors of pcDNA3-KAZ-V44I, pcDNA3-KAZ-A54I, pcDNA3-KAZ-Y138I, pcDNA3-KAZ-V44I-A54I, pcDNA3-KAZ-V44I-Y138I, pcDNA3-KAZ-A54I-Y138I and pcDNA3-KAZ-V44I-A54I-Y138I.
The culture media of the KAZ mutants with two amino acid substitutions and KAZ mutants with three amino acid substitutions and the enzyme solutions of cell-extracts of KAZ mutants were obtained in the same manner as EXAMPLE 10.
Luminescence activities of the resulting enzyme solutions and enzyme solutions of the cell-extracts of KAZ mutants were determined in the same manner as EXAMPLE 11.

Assay [3] is described as follows: Substrate specificities of KAZ mutants (ZZ-fused, crude enzyme), 6h-f-CTZ. As to conditions: 1 μg substrate; for Relative Luminescence Activity 6h-f-CTZ Int.: integrated for 60 seconds; for Relative Luminescence Activity 6h-f-CTZ Imax: maximum intensity of luminescence. The class given is biochemical. Here is the method: as §1, §2
The nature of assay [4]: Substrate specificities of KAZ mutants (ZZ-fused, crude enzyme), f-CTZ. The class given is biochemical. As to conditions: 1 μg substrate; for Relative Luminescence Activity f-CTZ Int.: integrated for 60 seconds; for Relative Luminescence Activity f-CTZ Imax: maximum intensity of luminescence. The procedure:
as §1, §2

The nature of assay [5]: Substrate specificities of KAZ mutants (ZZ-fused, crude enzyme), furimazine. The class given is biochemical. As to conditions: 1 μg substrate; for Relative Luminescence Activity Furimazine Int.: integrated for 60 seconds; for Relative Luminescence Activity Furimazine Imax: maximum intensity of luminescence. Here is the method:
as §1, §2

Setting [6] is: Table 4, 1 μL crude enzyme solution, 1 μg coelenterazine.
Setting [7] is: Table 9, crude enzyme solution, coelenterazine.
The mark [8] stands for this setting: ZZ-fused, crude enzyme solution.

B1: KAZ-A54I: KAZ with single amino acid substitution A54I, SEQ ID NO: 6 (protein)
chain: FTLADFVGDWQQTAGYNQDQVLEQGGLSSLFQALGVSVTPIQKVVLSGENGLKIDIHVIIPYEGLSGFQMGLIEMIFKVVYPVDDHHFKIILHYGTLVIDGVTPNMIDYFGRPYPGIAVFDGKQITVTGTLWNGNKIYDERLINPDGSLLFRVTINGVTGWRLCENILA
Regarding B1, in assay [1], the “Relative Luminescence Activity bis-CTZ Int.” value amounted to 3.4 and the “Relative Luminescence Activity bis-CTZ Imax” value is on record as 3.0. Further, in assay [2] (setting [6]), the “Relative Luminescence Activity (Imax)” value was found to be 8.9. For the same molecule, the “Relative Luminescence Activity (Imax)” value in assay [2] (setting [7]) is listed as 8.4. For the same molecule, in assay [2] (ZZ-fused, crude enzyme solution, coelenterazine), the “Luminescence activity compared with dnKAZ” value is reported as “comparable to dnKAZ”. The “Luminescence activity, times higher than that of wild KAZ” value (“Luminescence activity … of wild KAZ” for short) in assay [2] (setting [8]) is 8.9 times. Further, in the assay with CHO-K1 cells, the “Relative Luminescence Activity (Imax) Cell Extracts” value was 6.7; the “Relative Luminescence Activity (Imax) Culture Medium” value came out at 0.03; the “Luminescence activity in the cell extracts, fold higher than wild KAZ” value stood at 6.7 fold. In assay [3], the “Relative Luminescence Activity 6h-f-CTZ Int.” value came out at 2.0 and the “Relative Luminescence Activity 6h-f-CTZ Imax” value came to 1.6. In assay [4], the “Relative Luminescence Activity f-CTZ Int.” value is 4.9 and the “Relative Luminescence Activity f-CTZ Imax” value is reported as 8.2. In assay [5], the “Relative Luminescence Activity Furimazine Int.” value is listed as 2.1 and the “Relative Luminescence Activity Furimazine Imax” value is on record as 2.0.

B2: KAZ-V44I-A54I: KAZ mutant with two amino acid substitutions V44I and A54I, SEQ ID NO: 10 (protein)
chain: B1 chain with V44I
In the case of B2, in assay [1], the “Relative Luminescence Activity bis-CTZ Int.” value is listed as 5.9 and the “Relative Luminescence Activity bis-CTZ Imax” value is reported as 5.7. Moreover, the “Relative Luminescence Activity (Imax)” value in assay [2] (setting [7]) is 15.3. Further, in assay [2] (setting [8]), the “Luminescence activity, fold higher than dnKAZ” value stood at 1.6 fold and the “Luminescence activity, fold higher than wild KAZ” value is on record as 15 fold. Further, in the assay with CHO-K1 cells, the “Relative Luminescence Activity (Imax) Cell Extracts” value is on record as 22.5; the “Relative Luminescence Activity (Imax) Culture Medium” value amounted to 0.05; the “Luminescence activity compared with wild KAZ when coelenterazine was used as a substrate” value was “markedly higher luminescence activities than wild KAZ”; the “Luminescence activity in the cell extracts, fold higher than wild KAZ” value came out at 23 fold. Moreover, in assay [3], the “Relative Luminescence Activity 6h-f-CTZ Int.” value is 4.0 and the “Relative Luminescence Activity 6h-f-CTZ Imax” value was found to be 3.2. In assay [4], the “Relative Luminescence Activity f-CTZ Int.” value turned out to be 5.2 and the “Relative Luminescence Activity f-CTZ Imax” value was determined as 11.3. Besides, in assay [5], the “Relative Luminescence Activity Furimazine Int.” value amounted to 4.3 and the “Relative Luminescence Activity Furimazine Imax” value was 3.4.

B3: KAZ-V44I-Y138I: KAZ mutant with two amino acid substitutions V44I and Y138I, SEQ ID NO: 12 (protein)
chain: B1 chain with V44I, I54A, Y138I
For the molecule B3, in assay [1], the “Relative Luminescence Activity bis-CTZ Int.” value came out at 8.3 and the “Relative Luminescence Activity bis-CTZ Imax” value is 7.9. The “Relative Luminescence Activity (Imax)” value in assay [2] (setting [7]) came to 17.1. Also, in assay [2] (setting [8]), the “Luminescence activity, fold higher than dnKAZ” value was determined as 1.8 fold and the “Luminescence activity, fold higher than wild KAZ” value is on record as 17 fold. Besides, in the assay on CHO-K1 cells, the “Relative Luminescence Activity (Imax) Cell Extracts” value is 14.7; the “Relative Luminescence Activity (Imax) Culture Medium” value amounted to 0.04; the “Luminescence activity compared with wild KAZ when coelenterazine was used as a substrate” value is “markedly higher luminescence activities than wild KAZ”; the “Luminescence activity in the cell extracts, fold higher than wild KAZ” value is 15 fold. In addition, in assay [3], the “Relative Luminescence Activity 6h-f-CTZ Int.” value worked out at 4.2 and the “Relative Luminescence Activity 6h-f-CTZ Imax” value is 3.6. In addition, in assay [4], the “Relative Luminescence Activity f-CTZ Int.” value came out at 7.4 and the “Relative Luminescence Activity f-CTZ Imax” value was 13.3. Moreover, in assay [5], the “Relative Luminescence Activity Furimazine Int.” value was determined as 5.4 and the “Relative Luminescence Activity Furimazine Imax” value turned out to be 5.1.

B4: KAZ-Y138I: KAZ with single amino acid substitution Y138I, SEQ ID NO: 8 (protein)
chain: B1 chain with I54A, Y138I
Turning to B4, in assay [1], the “Relative Luminescence Activity bis-CTZ Int.” value worked out at 1.5 and the “Relative Luminescence Activity bis-CTZ Imax” value stood at 1.3. Further, the “Relative Luminescence Activity (Imax)” value in assay [2] (setting [6]) came to 5.9. Further, the “Relative Luminescence Activity (Imax)” value in assay [2] (setting [7]) was found to be 7.5. For the same molecule, in assay [2] (setting [8]), the “Luminescence activity … of wild KAZ” value turned out to be 5.9 times. Also, in the assay on CHO-K1 cells, the “Relative Luminescence Activity (Imax) Cell Extracts” value is on record as 6.4; the “Relative Luminescence Activity (Imax) Culture Medium” value stood at 0.03; the “Luminescence activity in the cell extracts, fold higher than wild KAZ” value was found to be 6.4 fold. For the same molecule, in assay [3], the “Relative Luminescence Activity 6h-f-CTZ Int.” value came to 0.8 and the “Relative Luminescence Activity 6h-f-CTZ Imax” value worked out at 0.6. In assay [4], the “Relative Luminescence Activity f-CTZ Int.” value stood at 2.4 and the “Relative Luminescence Activity f-CTZ Imax” value was 2.4. In addition, in assay [5], the “Relative Luminescence Activity Furimazine Int.” value was 0.8 and the “Relative Luminescence Activity Furimazine Imax” value came to 0.6.

B5: KAZ-V44I: KAZ with single amino acid substitution V44I, SEQ ID NO: 4 (protein)
chain: B1 chain with V44I, I54A
On to B5, for which, in assay [1], the “Relative Luminescence Activity bis-CTZ Int.” value was 1.4 and the “Relative Luminescence Activity bis-CTZ Imax” value is 1.1. The “Relative Luminescence Activity (Imax)” value in assay [2] (setting [6]) amounted to 6.6. For the same molecule, in assay [2] (setting [7]), the “Relative Luminescence Activity (Imax)” value was 7.2. In assay [2] (setting [8]), the “Luminescence activity … of wild KAZ” value is reported as 6.6 times. In the assay with CHO-K1 cells, the “Relative Luminescence Activity (Imax) Cell Extracts” value was 3.7; the “Relative Luminescence Activity (Imax) Culture Medium” value came out at 0.06; the “Luminescence activity in the cell extracts, fold higher than wild KAZ” value is given as 3.7 fold. Moreover, in assay [3], the “Relative Luminescence Activity 6h-f-CTZ Int.” value is on record as 0.7 and the “Relative Luminescence Activity 6h-f-CTZ Imax” value was determined as 0.6. In assay [4], the “Relative Luminescence Activity f-CTZ Int.” value amounted to 2.0 and the “Relative Luminescence Activity f-CTZ Imax” value is 2.1. In addition, in assay [5], the “Relative Luminescence Activity Furimazine Int.” value stood at 0.9 and the “Relative Luminescence Activity Furimazine Imax” value is 0.6.
